The values below come from article PMC2761383, “Structural and functional characteristics of xenavidin, the first frog avidin from Xenopus tropicalis” (BMC Structural Biology, 2009).

Assay [1] concerns the target xenavidin (Xenopus tropicalis). Description: crystal structure; sitting-drop vapour diffusion at 22°C, with and without D-biotin; space group R32, dimer in the asymmetric unit; 1.7 Å.
Assay [2] deals with xenavidin (Xenopus tropicalis). Description: SEC; Superdex 200 10/300 GL, 50 mM sodium phosphate pH 7.0, 650 mM NaCl; samples with and without an excess of biotin. For orientation: In gel filtration, larger molecules generally elute earlier.
In assay [3] the target is xenavidin, acetylated in vitro (Xenopus tropicalis). Description: SDS-PAGE thermostability assay; acetylated protein saturated with biotin, thermal treatment for 20 min in the presence of SDS and 2-mercaptoethanol, SDS-PAGE with Coomassie staining.

By stoichiometry N is commonly meant the number of molecules, sites or subunits per partner or assembly. Consider xenavidin (natural protein), for which the stoichiometry N in assay [1] and in assay [2] was 4 throughout.
Consider “xenavidin, acetylated in vitro (natural protein)”, for which, in assay [3], the stoichiometry N stood at 4.
